In the supplement of paper PMC12338614:

B1: library; numbered along this chain (parent)
chain: MEVVDPQQLGMFTEGELMSVGMDTFIHRIDSTEVIYQPRRKRAKLIGKYLMGDLLGEGSYGKVKEVLDSETLCRRAVKILKKKKLRRIPNGEANVKKEIQLLRRLRHKNVIQLVDVLYNEEKQKMYMVMEYCVCGMQEMLDSVPEKRFPVCQAHGYFCQLIDGLEYLHSQGIVHKDIKPGNLLLTTGGTLKISDLGVAEALHPFAADDTCRTSQGSPAFQPPEIANGLDTFSGFKVDIWSAGVTLYNITTGLYPFEGDNIYKLFENIGKGSYAIPGDCGPPLSDLLKGMLEYEPAKRFSIRQIRQHSWFRKKHPPAEAPVPIPPSPDTKDRWRSMTVVPYLEDLHGADEDEDLFDIEDDIIYTQDFTVPGQVPEEEASHNGQRRGLPKAVCMNGTEAAQLSTKSRAEGRAPNPARKACSASSKIRRLSACKQQ

Variants of: B1
Assay: STK11 functional score (HeLa growth suppression), rescaled enrichment; synonymous median = 1, nonsense median = 0 (normalised score)
Details: with HeLa; variant type: missense
How it was run: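 Codon-randomised (POPCode) libraries of codon-optimised STK11 were integrated by Bxb1 at an AAVS1 landing pad in HeLa, in three regions each transfected three times. Integrants (BFP-negative, mCherry-positive) were FACS-sorted 4–5 days after electroporation and grown about two weeks; tiled gDNA amplicons were sequenced on NextSeq (~2 million reads per tile). The functional score is the wild-type-corrected post/pre-selection log ratio, rescaled to synonymous and nonsense medians, merged over codons and replicate transfections, with bootstrapped error.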

STK11 functional score: each site, then its substitutions
S142: I 0.895, T 1.47, W 0.385, P 1.34, H 1.44, Y 1.13, A 1.63, V 1.51, N 1.16, D 1.52, L 1.16, F 1.41, C 1.17, Q 1.69, R 0.875, E 1.55, M 0.933, K 1.52, G 1.62
P144: I 0.87, G 1, R 0.996, A 1.08, D 1.46, M 1.17, N 1.53, L 0.658, S 0.825, K 1.63, E 1.63, V 0.879, T 1.18, W 1.61, H 0.422, Q 1.25
L140: H -0.0286, A 0.543, N 0.0882, T 0.232, Q 1.54, R 0.437, K 1.06, W -0.107, Y -0.0286, C 0.555, P -0.0157, F -0.0987, E -0.3, V 0.909, S -0.236, I 1.15, D 0.0191, G -0.0512
E145: Q 1.29, R 1.21, S 1.45, G 0.981, I 1.14, L 1.16, H 1.31, P 1.36, Y 1.12, W 1.41, M 1.3, N 1.46, C 1.41, D 1.11, F 0.968, T 1.54, A 0.952, V 0.644
V133: T 1, L 0.982, Y 1.55, N 1.17, C 1.35, G 1.14, A 1.41, S 1.06, D 1.53, E 0.588, H 1.47, P 1.53, W 0.452, R 0.519, I 1.24
E138: V 0.367, M 1.27, D 1.1, N 0.232, Y 1.08, L 1.15, R -0.217, S 1.26, K 1.59, I 1.48, A 1.09, W 1.19, C 0.386
M139: I 1.01, W 1.27, C 1.29, K 1.41, P 0.179, N 0.949, A 1.39, L 1.2, Y 1.53, E 0.269, G 0.563, S 0.816, D -0.172, V 0.965, T 1.18, Q 1.11, R 0.918
C132: Q 1.58, H 1.16, M 1.35, P -0.178, F 0.255, T 1.52, R -0.197, L 0.813, E 1.06, A 1.47, K 1.25, N 1.23, S 0.556, V 0.601, Y 0.597, G 0.44, I 1.32, W -0.606
G135: P 1.7, Y 1.32, L 1.52, I 1.69, Q 1.57, F 1.09, C 1.54, A 1.56, S 1.65, H 1.63, N 1.7, W 0.571, K 1.63, T 1.66, D 1.06, R 1.38, V 1.29, E 1.45
F148: W 0.336, C 0.493, S -0.139, V 0.674, Y 0.892, I 1.31, D -0.396, Q 0.0904, N 0.0347, T -0.101, E 0.147, R -0.0906, M 1.3, G -0.0254, P -0.111
